Laboratory results published in patent publication US20240279345A1, “ALPHA 5 BETA 1 INTEGRIN BINDING AGENTS AND USES THEREOF” (PASITHEA THERAPEUTICS CORP., priority 2021, published 2024).

B1: A2-7A05: anti-α5β1 antibody, VH SEQ ID NO:77, VL SEQ ID NO:78; tested as mouse hybridoma antibody and as human IgG4 chimera (antibody, V domains shown)
VH: QVQLQQPGAELVKPGASVKLSCKASGYTFTIYWINWVKQRPGQGLEWIGKIYPGSISTDYNEKFKSKATLTVDTSSSTAYMQLSSLTSDDSAVYYCAITGTGGLAYWGQGTLVTVSA
VL: ENVLTQSPAIMSASLGEKVTMTCRASSSVNYMYWYQQKSDASPKLWIYFTSSLAPGVPGRFSGSGSGNSYSLTISTMEGEDAATYYCQQFTTSPFTFGSGTKLEIK
modifications: A2-7A05 VH Sequence; A2-7A05 VL Sequence
notes: tested as mouse hybridoma antibody and as human IgG4 chimera
B2: A-15B08: anti-α5β1 antibody, VH SEQ ID NO:25, VL SEQ ID NO:26; tested as mouse hybridoma antibody and as human IgG4 chimera (antibody, V domains shown)
VH: QVQLKESGPGLVAPSQSLSITCTISGFSLTSYGVHWVRQPPGKGLEWLVVIWSDGSTTYNSTLKSRLSISKDNSKSQVFFKMNSLQTDDTAMYYCARHYDYDGDWFAYWGQGTLVTVSA
VL: QIVLTQSPAIMSASLGERVTMTCTASSRVSSNSLHWYQQKPGSSPKLWIYSTSNLASGVPARFSGSGSGTSYSLTISSMEAEDAATYYCHQYLRSPPTFGGGTKLEIK
modifications: A-15B08 VH Sequence; A-15B08 VL Sequence
notes: as for B1

Experiments:
[1] = biological target: T1, binding of α5β1 integrin to fibronectin (FN) (Homo sapiens, UniProt P05556+P08648); assay: Quantitative FN inhibition (FN-blocking) assay in ELISA format; assay type: biochemical; conditions: by ELISA
T1 construct: purchased Acro Biosystems IT1-H52W5
From the text: To determine whether the 9 unique hybridoma clones selected as described in Example 4 were able to inhibit the binding of α5β1 integrin to fibronectin (FN), the antibodies were first purified from hybridoma supernatants by Protein A chromatography, protein concentrations measured by BCA assay (Pierce™ BCA Protein Assay Kit; Thermo Fisher Scientific, Waltham, MA, cat. no. 23225) and then tested in a quantitative FN inhibition assay in an ELISA format.
Immulon4 HBX ELISA 96-well plates were coated with FN by incubation overnight at 4° C. with 2.5 μg/mL human FN (R&D Systems, Minneapolis, MN 55413, cat. no. 1918-FN) in 1×PBS (0.01M phosphate buffer and 0.154M NaCl, pH 7.4). Plates were then washed 3 times with Wash Buffer (1× Tris Buffered Saline containing 0.05% Tween20), blocked with 2% BSA in 1×TBS for 2 hours at room temperature (RT). Antibodies were diluted in Standard Diluent (2% BSA, 1×TBS, 0.05% Tween20) containing 0.1 μg/mL rh-α5β1-6×His tagged protein (Acro Biosystems, Newark, DE, cat. no. IT1-H52W5), to generate an 11 point 1:3 antibody dilution series ranging from 10,000 ng/mL to 0.17 ng/mL. Isotype control antibody (Control Ab; Ms IgG2a EMD Millipore Corp, Billerica, MA, cat. no. PP102) was used to normalize data across different assay runs. For the assays, 100 uL of the antibody dilution series/His-tagged-α5β1 mixture was added to the wells after the blocking solution was removed and wells were washed 3 times. Following 1 hour at RT, the wells were washed 3 times, incubated with biotinylated Anti-6×His-Tag Ab (Invitrogen, Carlsbad, CA, cat. no. MAI-21315-BTIN) at 1:1000 in Standard Diluent for 1 hour, washed 3 times, incubated for 30 minutes with poly-HRP Streptavidin (Thermo Fisher Scientific, Waltham, MA, cat. no. N200), washed 4 times, incubated with TMB substrate (Thermo Fisher Scientific, Waltham, MA, cat. no. N301) for 2-5 minutes, followed by addition of ELISA Stop Solution (Invitrogen, Carlsbad, CA, cat. no. SS04). Absorbance 450 nm was measured. Data points were normalized to the isotype Control Ab values at each concentration and reported as % Absorbance 450 nm normalized to Control Ab. Non-linear regression analysis was used to fit curves (4-parameter) to the data using GraphPad Prism version 9.0.2 (GraphPad Software, LLC, San Diego, CA).
Freeze-thaw stability was tested on a small aliquot of each chimera antibody by overnight storage at −80° C. followed by thaw on ice, repeated three times. […] IC50s were calculated by non-linear regression analysis curve-fitting (4-parameter) of the ELISA data (FIG. 5) using GraphPad Prism version 9.0.2 (GraphPad Software, LLC, San Diego, CA). […]

U87MG cells = assay: Cellular detachment of U87MG cells from FN coated plates; assay type: cell-based; conditions: for antibody concentration at which cellular detachment was seen: A-15B08 at 1 and 3 hours, A2-7A05 only obvious at 3 hours; for cellular detachment (cell rounding) of U87MG cells from FN coated plates: antibodies 2.0-0.016 μg/mL, cRGD 20-0.16 μM, 1 hour and 3 hours
Procedure: The A-15B08 and A2-7A05 antibodies and cRGD were also tested for their ability to induce dissociation of cellular α5β1 integrin from FN. U87MG cells (HTB-14™, ATCC, Manassas, VA) which were originally derived from a Glioblastoma tumor, are known to express α5β1 integrin, and adhere to FN coated plates. After an overnight incubation on FN coated plates, the U87MG cells formed a loosely packed monolayer and have extended spindle shapes. If the cells are induced to detach from the plates, by trypsin for example, the attachment points are released, and the cells become round. This type of change in morphology was used to assess whether the antibodies and the small molecule inhibitor cRGD can induce U87MG cells to dissociate from FN coated plates.
The following method was used to assess cellular detachment activity: A 96-well cell culture plate (Thermo Fisher Scientific, Waltham, MA, cat. no. 165306) was coated with FN (Human Fibronectin, R&D Systems, Minneapolis, MN 55413, cat. no. 1918-FN) by incubation of 50 uL per well 32 μg/mL FN in 1×PBS for 1 hour at 37° C., then washed 2× with EMEM media (ATCC, Manassas, VA, cat. no. 30-2003) supplemented with 10% Fetal Bovine Serum (FBS; ATCC, Manassas, VA, cat. no. 30-2021). U87MG cells were plated at 20,000 cells per well in EMEM media+10% FBS overnight to allow for maximum adherence. The next day the media was replaced with fresh media that included a 1:5 dilution series of antibodies A-15B08, A2-7A05 or isotype control IgG4 at concentrations of 2.0, 0.4, 0.08 and 0.016 μg/mL or cRGD at 20, 4, 0.8 and 0.16 μM. All tests were run in duplicate. Cell morphology was assessed, and images were captured using a 10× objective of an ECHO Rebel light microscope (ECHO, San Diego, CA).

rh-α5β1 = rh-α5β1 (Homo sapiens, UniProt P05556+P08648); assay: Competition binding studies by Biolayer Interferometry (epitope groups); conditions: for binding of rh-α5β1 complexed with antibody to C-14D12 on the sensor: C-14D12 immobilized on sensor; for Response (nm) / % Response: secondary mAb pre-mixed with 20 nM rh-α5β1; for % Response: relative to antigen alone; for epitope group: two epitope groups among 6 antibodies
In short: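 Pre-mixed competition BLI: FN-blocking lead antibodies A2-7A05, C-14D12 or A-15B08 loaded on sensors (700 s), quenched, baselined, then exposed 600 s to partner antibody preincubated 1 hr with rh-α5β1. Response relative to antigen alone: >120% = antibodies pair, <80% = antibodies block.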

[2] = antibody preincubated with rh-α5β1

T1 sequence (P08648 42-894 limits assumed): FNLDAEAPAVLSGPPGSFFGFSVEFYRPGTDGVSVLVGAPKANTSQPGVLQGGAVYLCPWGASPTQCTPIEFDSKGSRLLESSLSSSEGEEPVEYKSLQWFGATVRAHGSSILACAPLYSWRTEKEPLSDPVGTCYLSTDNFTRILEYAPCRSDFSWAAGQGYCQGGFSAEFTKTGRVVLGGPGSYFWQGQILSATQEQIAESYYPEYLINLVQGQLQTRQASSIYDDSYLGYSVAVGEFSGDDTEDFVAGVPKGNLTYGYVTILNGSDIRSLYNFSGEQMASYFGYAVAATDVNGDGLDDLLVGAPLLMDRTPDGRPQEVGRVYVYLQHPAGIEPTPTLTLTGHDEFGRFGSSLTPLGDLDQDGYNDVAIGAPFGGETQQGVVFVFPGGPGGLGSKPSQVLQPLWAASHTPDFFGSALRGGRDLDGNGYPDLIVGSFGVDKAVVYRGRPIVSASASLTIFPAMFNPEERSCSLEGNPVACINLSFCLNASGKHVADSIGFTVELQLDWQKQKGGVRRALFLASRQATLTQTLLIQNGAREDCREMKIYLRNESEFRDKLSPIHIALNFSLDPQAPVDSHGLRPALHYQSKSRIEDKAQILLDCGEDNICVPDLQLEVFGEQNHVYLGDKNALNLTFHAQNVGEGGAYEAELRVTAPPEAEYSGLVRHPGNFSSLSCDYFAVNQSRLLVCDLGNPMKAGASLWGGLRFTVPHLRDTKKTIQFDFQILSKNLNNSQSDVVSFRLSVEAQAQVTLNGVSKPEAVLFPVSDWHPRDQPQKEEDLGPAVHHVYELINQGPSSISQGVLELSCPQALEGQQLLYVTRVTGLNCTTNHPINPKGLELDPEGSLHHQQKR
T1 sequence (P08648 895-995 limits assumed): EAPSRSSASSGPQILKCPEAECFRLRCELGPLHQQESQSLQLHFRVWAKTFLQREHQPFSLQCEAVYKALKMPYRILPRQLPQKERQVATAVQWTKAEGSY
T1 sequence (P05556 21-728 limits assumed): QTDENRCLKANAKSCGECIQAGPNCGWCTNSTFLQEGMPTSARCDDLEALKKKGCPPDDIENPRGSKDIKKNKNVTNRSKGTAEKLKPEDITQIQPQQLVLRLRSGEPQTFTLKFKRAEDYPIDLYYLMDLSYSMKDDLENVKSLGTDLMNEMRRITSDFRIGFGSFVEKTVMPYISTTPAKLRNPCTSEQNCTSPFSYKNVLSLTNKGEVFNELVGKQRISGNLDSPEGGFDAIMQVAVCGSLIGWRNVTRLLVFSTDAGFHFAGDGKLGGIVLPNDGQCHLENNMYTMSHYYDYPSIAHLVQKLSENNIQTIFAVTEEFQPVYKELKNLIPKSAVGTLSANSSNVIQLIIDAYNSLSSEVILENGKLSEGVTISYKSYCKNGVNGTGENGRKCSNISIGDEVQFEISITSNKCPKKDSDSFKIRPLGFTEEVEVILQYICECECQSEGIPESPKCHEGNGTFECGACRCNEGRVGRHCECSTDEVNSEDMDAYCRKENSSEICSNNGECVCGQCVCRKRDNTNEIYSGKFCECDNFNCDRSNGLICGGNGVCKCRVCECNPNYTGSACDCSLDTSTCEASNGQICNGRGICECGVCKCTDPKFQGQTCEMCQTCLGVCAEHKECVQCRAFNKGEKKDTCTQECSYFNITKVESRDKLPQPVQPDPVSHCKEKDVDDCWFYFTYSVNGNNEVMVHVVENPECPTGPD
rh-α5β1, sequence (P08648 42-894 limits assumed): as the sequence (P08648 42-894 limits assumed) above
rh-α5β1, sequence (P08648 895-995 limits assumed): as the sequence (P08648 895-995 limits assumed) above
rh-α5β1, sequence (P05556 21-728 limits assumed): as the sequence (P05556 21-728 limits assumed) above

Molecule | class of FN binding blocker [1] | antibody concentration at which cellular detachment was seen (U87MG cells) [µg/mL] | cellular detachment (cell rounding) of U87MG cells from FN coated plates (U87MG cells) | binding of rh-α5β1 complexed with antibody to A-15B08 on the sensor (rh-α5β1; antibody preincubated with rh-α5β1, A-15B08 immobilized on sensor) | binding of rh-α5β1 complexed with antibody to C-14D12 on the sensor (rh-α5β1; [2]) | Response (nm) (rh-α5β1; immobilized mAb A2-7A05) | % Response (rh-α5β1; immobilized mAb A2-7A05) [%] | Response (nm) (rh-α5β1; immobilized mAb A-15B08) | % Response (rh-α5β1; immobilized mAb A-15B08) [%] | Response (nm) (rh-α5β1; immobilized mAb C-14D12) | % Response (rh-α5β1; immobilized mAb C-14D12) [%] | epitope group (rh-α5β1) | binding of rh-α5β1 complexed with antibody to A2-7A05 on the sensor (rh-α5β1; antibody preincubated with rh-α5β1, A2-7A05 immobilized on sensor)
B1 | partial blocker of FN binding | 0.4 | much lower level | able to bind | able to bind | −0.17 | −451.35 | 0.31 | 150.63 | 0.31 | 139.39 | one group | –
B2 | strong blockers of FN binding | 0.4 | significant cell rounding | – | not able to bind | 0.25 | 666.22 | −0.15 | −73.81 | −0.09 | −38.40 | second group | able to bind
